# Laboratory results published in US20150344570A1 (published 2015).
# T1: FcγRIIb extracellular domain with C-terminal His tag (human, UniProt P31994 43-217)
# T1 construct: extracellular domain; also called FcgRIIb; 2b; not shown: His tag at the C terminus
# T1 sequence (looked up): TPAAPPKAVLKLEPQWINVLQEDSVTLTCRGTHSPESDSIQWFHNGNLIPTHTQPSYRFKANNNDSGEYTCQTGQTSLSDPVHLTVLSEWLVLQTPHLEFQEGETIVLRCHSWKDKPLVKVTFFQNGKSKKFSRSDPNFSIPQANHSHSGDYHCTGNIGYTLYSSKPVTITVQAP
# B1: GpH7-A5/GpH7-B3 variant S239_10E/GpL16-k0 (antibody, human IgG1, kappa)
# heavy 1: not shown
# heavy 2: not shown
# light: DIVMTQSPLSLPVTPGEPASISCQASESLVHSNRNTYLHWYLQKPGQSPQLLIYKVSNRFSGVPDRFSGSGSGTDFTLKISRVEAEDVGVYYCSQNTHVPPTFGQGTKVEIERTVAAPSVFIFPPSDEQLKSGTASVVCLLNNFYPREAKVQWKVDNALQSGNSQESVTEQDSKDSTYSLSSTLTLSKADYEKHKVYACEVTHQGLSSPVTKSFNRGEC
# notes: also called He Ab S239_10E
# B2: GpH7-A5/GpH7-B3 variant K334_07I/GpL16-k0 (antibody, human IgG1, kappa)
# heavy 1: not shown
# heavy 2: not shown
# light: B1 light
# notes: also called He Ab K334_07I
# B3: GpH7-A5/GpH7-B3 variant K334_08L/GpL16-k0 (antibody, human IgG1, kappa)
# heavy 1: not shown
# heavy 2: not shown
# light: B1 light
# notes: also called He Ab K334_08L
# B4: GpH7-A5/GpH7-B3 variant T335_15Y/GpL16-k0 (antibody, human IgG1, kappa)
# heavy 1: not shown
# heavy 2: not shown
# light: B1 light
# notes: also called He Ab T335_15Y
# B5: GpH7-A5/GpH7-B3 variant G236_10E/GpL16-k0 (antibody, human IgG1, kappa)
# heavy 1: not shown
# heavy 2: not shown
# light: B1 light
# notes: also called He Ab G236_10E
# B6: GpH7-A5/GpH7-B3 variant G237_20W/GpL16-k0 (antibody, human IgG1, kappa)
# heavy 1: not shown
# heavy 2: not shown
# light: B1 light
# notes: also called He Ab G237_20W
# B7: GpH7-A5/GpH7-B3 variant I332_14T/GpL16-k0 (antibody, human IgG1, kappa)
# heavy 1: not shown
# heavy 2: not shown
# light: B1 light
# notes: also called He Ab I332_14T
# B8: GpH7-A5/GpH7-B3 variant H268_09D/GpL16-k0 (antibody, human IgG1, kappa)
# heavy 1: not shown
# heavy 2: not shown
# light: B1 light
# notes: also called He Ab H268_09D
# B9: GpH7-A5/GpH7-B3 variant G237_04F/GpL16-k0 (antibody, human IgG1, kappa)
# heavy 1: not shown
# heavy 2: not shown
# light: B1 light
# notes: also called He Ab G237_04F
# B10: GpH7-A5/GpH7-B3 variant K334_03V/GpL16-k0 (antibody, human IgG1, kappa)
# heavy 1: not shown
# heavy 2: not shown
# light: B1 light
# notes: also called He Ab K334_03V
# B11: GpH7-A5/GpH7-B3 variant Y296_20W/GpL16-k0 (antibody, human IgG1, kappa)
# heavy 1: not shown
# heavy 2: not shown
# light: B1 light
# notes: also called He Ab Y296_20W
# B12: GpH7-A5/GpH7-B3 variant S239_03V/GpL16-k0 (antibody, human IgG1, kappa)
# heavy 1: not shown
# heavy 2: not shown
# light: B1 light
# notes: also called He Ab S239_03V
# B13: GpH7-A5/GpH7-B3 variant I332_10E/GpL16-k0 (antibody, human IgG1, kappa)
# heavy 1: not shown
# heavy 2: not shown
# light: B1 light
# notes: also called He Ab I332_10E
# B14: GpH7-A5/GpH7-B3 variant K326_20W/GpL16-k0 (antibody, human IgG1, kappa)
# heavy 1: not shown
# heavy 2: not shown
# light: B1 light
# notes: also called He Ab K326_20W
# B15: GpH7-A5/GpH7-B3 variant K326_16H/GpL16-k0 (antibody, human IgG1, kappa)
# heavy 1: not shown
# heavy 2: not shown
# light: B1 light
# notes: also called He Ab K326_16H
# B16: GpH7-A5/GpH7-B3 variant K326_10E/GpL16-k0 (antibody, human IgG1, kappa)
# heavy 1: not shown
# heavy 2: not shown
# light: B1 light
# notes: also called He Ab K326_10E
# B17: GpH7-A5/GpH7-B3 variant H268_18N/GpL16-k0 (antibody, human IgG1, kappa)
# heavy 1: not shown
# heavy 2: not shown
# light: B1 light
# notes: also called He Ab H268_18N
# B18: GpH7-A5/GpH7-B3 variant K326_03V/GpL16-k0 (antibody, human IgG1, kappa)
# heavy 1: not shown
# heavy 2: not shown
# light: B1 light
# notes: also called He Ab K326_03V
# B19: GpH7-A5/GpH7-B3 variant P331_20W/GpL16-k0 (antibody, human IgG1, kappa)
# heavy 1: not shown
# heavy 2: not shown
# light: B1 light
# notes: also called He Ab P331_20W
# B20: GpH7-A5/GpH7-B3 variant S337_16H/GpL16-k0 (antibody, human IgG1, kappa)
# heavy 1: not shown
# heavy 2: not shown
# light: B1 light
# notes: also called He Ab S337_16H
# B21: GpH7-A5/GpH7-B3 variant P331_15Y/GpL16-k0 (antibody, human IgG1, kappa)
# heavy 1: not shown
# heavy 2: not shown
# light: B1 light
# notes: also called He Ab P331_15Y
# B22: GpH7-A5/GpH7-B3 variant I332_09D/GpL16-k0 (antibody, human IgG1, kappa)
# heavy 1: not shown
# heavy 2: not shown
# light: B1 light
# notes: also called He Ab I332_09D
# B23: GpH7-A5/GpH7-B3 variant K334_10E/GpL16-k0 (antibody, human IgG1, kappa)
# heavy 1: not shown
# heavy 2: not shown
# light: B1 light
# notes: also called He Ab K334_10E
# B24: GpH7-A5/GpH7-B3 variant K326_15Y/GpL16-k0 (antibody, human IgG1, kappa)
# heavy 1: not shown
# heavy 2: not shown
# light: B1 light
# notes: also called He Ab K326_15Y
# B25: GpH7-A5/GpH7-B3 variant K334_13S/GpL16-k0 (antibody, human IgG1, kappa)
# heavy 1: not shown
# heavy 2: not shown
# light: B1 light
# notes: also called He Ab K334_13S
# B26: GpH7-A5/GpH7-B3 variant K326_14T/GpL16-k0 (antibody, human IgG1, kappa)
# heavy 1: not shown
# heavy 2: not shown
# light: B1 light
# notes: also called He Ab K326_14T
# B27: GpH7-A5/GpH7-B3 variant K334_02A/GpL16-k0 (antibody, human IgG1, kappa)
# heavy 1: not shown
# heavy 2: not shown
# light: B1 light
# notes: also called He Ab K334_02A
# B28: GpH7-A5/GpH7-B3 variant K326_09D/GpL16-k0 (antibody, human IgG1, kappa)
# heavy 1: not shown
# heavy 2: not shown
# light: B1 light
# notes: also called He Ab K326_09D
# Biological target: T1, FcγRIIb extracellular domain with …
# Experiment: SPR, relative binding, HeCon Ab = 100
# Procedure: Analysis of interaction between objective antibody and the FcγR was carried out using Biacore T100 (GE Healthcare). HBS-EP+ (GE Healthcare) was used as the running buffer, and the measurement temperature was set to 25° C. Chips produced by immobilizing the antigen peptide by the amine coupling method to a Series S Sencor Chip CM5 (GE Healthcare), or alternatively, chips produced by allowing preliminarily biotinylated antigen peptides to interact with and immobilize onto a Series S Sensor Chip SA (certified) (GE Healthcare) were used. Antibodies of interest were captured onto an antigen peptide-immobilized chip, and allowed to interact to each FcγR diluted with running buffer. To regenerate and repeatedly use the chip, the antibodies captured on the chip were washed off by reacting 10 mM glycine-HCl, pH 1.5.
row,He/Con_2b,Binder
1,181 % of control,B1
2,119 % of control,B2
3,106 % of control,B3
4,108 % of control,B4
5,110 % of control,B5
6,193 % of control,B6
7,106 % of control,B7
8,239 % of control,B8
9,149 % of control,B9
10,125 % of control,B10
11,103 % of control,B11
12,108 % of control,B12
13,142 % of control,B13
14,148 % of control,B14
15,119 % of control,B15
16,200 % of control,B16
17,156 % of control,B17
18,175 % of control,B18
19,111 % of control,B19
20,105 % of control,B20
21,114 % of control,B21
22,147 % of control,B22
23,114 % of control,B23
24,159 % of control,B24
25,111 % of control,B25
26,150 % of control,B26
27,108 % of control,B27
28,193 % of control,B28
